One block for each molecule: values may come before it.
How the values were obtained:
[1] = target: Ubp6 UBL UBL (Saccharomyces cerevisiae) (UniProt P43593); settings: cited from earlier work
[2] = target: T1, Rpn1^391-642 (Saccharomyces cerevisiae, UniProt P38764 391-642); assay: NMR titration; unlabeled Ubp6-UBL titrated into ^15N-Rpn1^391-642 or ^15N-Rpn1^391-642(AKAA); CSPs fitted to a single-site binding model, Kd as a global parameter; 50 mM HEPES, 50 mM KCl, 1 mM TCEP, pH 7.6; 21-25 °C; settings: both partners purified
T1 construct: Used unlabeled, and ^15N-enriched for the titration with Ubp6-UBL; source: E. coli, purified
T1 sequence (looked up): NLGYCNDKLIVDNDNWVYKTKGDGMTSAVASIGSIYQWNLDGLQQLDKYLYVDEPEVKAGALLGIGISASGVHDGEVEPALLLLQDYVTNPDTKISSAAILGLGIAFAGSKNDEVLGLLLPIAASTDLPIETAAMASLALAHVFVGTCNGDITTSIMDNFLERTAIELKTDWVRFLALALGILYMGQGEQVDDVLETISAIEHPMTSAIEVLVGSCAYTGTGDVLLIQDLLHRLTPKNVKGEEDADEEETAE

[3] = target: T2, Rpn1^391-642(AKAA) (Saccharomyces cerevisiae, UniProt P38764 391-642, L430A | D431K | Q434A | Q435A); assay: as above; settings: both partners purified
T2 construct: ^15N-enriched in the titration; source: E. coli, purified
T2 sequence (looked up): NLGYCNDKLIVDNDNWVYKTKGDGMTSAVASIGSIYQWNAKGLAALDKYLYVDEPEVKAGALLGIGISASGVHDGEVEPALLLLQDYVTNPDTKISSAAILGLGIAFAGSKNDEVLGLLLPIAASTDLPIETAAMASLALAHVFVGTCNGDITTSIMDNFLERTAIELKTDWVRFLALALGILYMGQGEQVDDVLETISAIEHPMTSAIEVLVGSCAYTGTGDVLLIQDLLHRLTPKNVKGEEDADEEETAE

[4] = target: T3, full-length Rpn1 (Saccharomyces cerevisiae, UniProt P38764 1-993); assay: NMR titration; competition: 150 μM ^15N-UBL with 1× Rpn10-UIM, then 0.3× Rpn1^FL (48 μM), then 2× or 3× Rpn10-UIM; settings: both partners purified
T3 construct: Rpn1, proteasomal subunit, Saccharomyces cerevisiae, UniProt P38764, full length; Unlabeled in the NMR experiments; also called Rpn1^FL; source: E. coli, purified
T3 sequence (looked up): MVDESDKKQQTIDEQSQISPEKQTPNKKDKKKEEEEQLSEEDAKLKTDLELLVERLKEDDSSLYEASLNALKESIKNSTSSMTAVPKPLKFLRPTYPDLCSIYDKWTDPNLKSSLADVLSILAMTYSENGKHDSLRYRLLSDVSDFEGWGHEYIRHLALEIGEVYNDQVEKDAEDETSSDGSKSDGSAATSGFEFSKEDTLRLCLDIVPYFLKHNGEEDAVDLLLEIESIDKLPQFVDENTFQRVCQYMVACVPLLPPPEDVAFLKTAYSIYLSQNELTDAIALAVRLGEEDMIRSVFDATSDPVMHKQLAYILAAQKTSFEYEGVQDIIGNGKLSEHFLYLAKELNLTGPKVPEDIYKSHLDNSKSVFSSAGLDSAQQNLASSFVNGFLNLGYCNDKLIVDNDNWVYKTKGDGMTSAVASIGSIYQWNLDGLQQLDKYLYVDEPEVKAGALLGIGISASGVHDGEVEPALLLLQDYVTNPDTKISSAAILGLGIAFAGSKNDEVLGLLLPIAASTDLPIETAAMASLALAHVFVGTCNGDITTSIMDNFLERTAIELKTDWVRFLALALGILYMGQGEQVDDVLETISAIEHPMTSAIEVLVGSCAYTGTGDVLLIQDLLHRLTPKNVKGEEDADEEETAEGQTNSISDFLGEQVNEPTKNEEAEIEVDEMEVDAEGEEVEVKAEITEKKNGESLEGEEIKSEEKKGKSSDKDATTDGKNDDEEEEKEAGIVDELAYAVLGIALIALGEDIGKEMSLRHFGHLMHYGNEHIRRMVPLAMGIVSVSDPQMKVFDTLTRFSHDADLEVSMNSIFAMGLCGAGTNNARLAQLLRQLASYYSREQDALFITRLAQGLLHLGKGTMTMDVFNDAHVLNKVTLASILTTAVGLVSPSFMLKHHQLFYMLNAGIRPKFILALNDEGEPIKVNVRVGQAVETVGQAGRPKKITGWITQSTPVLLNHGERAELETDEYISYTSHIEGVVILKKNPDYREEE

[5] = target: T4, Rpn10-UIM (Saccharomyces cerevisiae, UniProt P38886 204-268, Q261Y); assay: NMR titration; ^1H-^15N spectra of 150 μM ^15N-UBL with 1× Rpn10-UIM; signal shifts; settings: both partners purified
T4 construct: Rpn10, Saccharomyces cerevisiae, UniProt P38886, residues 204-268 with a Q261Y mutation for quantification purposes; also called UIM domain of Rpn10; source: E. coli, purified
T4 sequence (looked up): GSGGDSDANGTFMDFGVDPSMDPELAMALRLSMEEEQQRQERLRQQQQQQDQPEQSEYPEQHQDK

[6] = target: T5, Rpn1^356-905 (Saccharomyces cerevisiae, UniProt P38764 356-905); assay: NMR titration; ^1H-^15N spectra of ^15N-UBL with unlabeled Rpn1^356-905; 50 mM Tris-Cl, 200 mM KCl, 5% glycerol, 5 mM β-mercaptoethanol, pH 7.4; 21-25 °C; settings: both partners purified
T5 construct: also called PC repeat region construct; source: E. coli, purified
T5 sequence (looked up): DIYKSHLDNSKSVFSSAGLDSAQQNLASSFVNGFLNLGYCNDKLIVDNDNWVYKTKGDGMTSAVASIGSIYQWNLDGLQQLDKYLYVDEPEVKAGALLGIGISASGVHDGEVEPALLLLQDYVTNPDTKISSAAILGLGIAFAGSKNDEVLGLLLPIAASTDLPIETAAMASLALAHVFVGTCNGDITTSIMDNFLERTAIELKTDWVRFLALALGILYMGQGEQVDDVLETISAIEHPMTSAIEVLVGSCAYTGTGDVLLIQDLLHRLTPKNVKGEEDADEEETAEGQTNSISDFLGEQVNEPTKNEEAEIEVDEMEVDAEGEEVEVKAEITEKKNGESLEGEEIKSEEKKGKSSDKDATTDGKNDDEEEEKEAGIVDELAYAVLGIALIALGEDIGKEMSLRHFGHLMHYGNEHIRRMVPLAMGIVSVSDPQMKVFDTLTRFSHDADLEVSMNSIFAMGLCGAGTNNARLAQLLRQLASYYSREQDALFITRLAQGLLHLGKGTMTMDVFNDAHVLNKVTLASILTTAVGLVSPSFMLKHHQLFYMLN

[7] = target: T1, Rpn1^391-642; assay: NMR titration; ^1H-^15N spectra, CSPs and ^15N R2 of 150 μM ^15N-UBL or ^15N-^dK48-Ub2 with unlabeled Rpn1^391-642; 50 mM HEPES, 50 mM KCl, 1 mM TCEP, pH 7.6; 21-25 °C; settings: both partners purified
[8] = target: T3, full-length Rpn1; assay: NMR titration; ^1H-^15N spectra of the ^15N-enriched protein or UBL domain with unlabeled Rpn1^FL (equimolar; excess for Ddi1); signal attenuation; 20 mM sodium phosphate, 150 mM NaCl, 1 mM TCEP, pH 6.8; 21-25 °C; settings: both partners purified
[9] = target: T5, Rpn1^356-905; assay: NMR titration; competition: equimolar ^15N-UBL and Rpn1^356-905 with unlabeled competitor added stepwise (molar ratios 1 and 4); 50 mM Tris-Cl, 200 mM KCl, 5% glycerol, 5 mM β-mercaptoethanol, pH 7.4; 21-25 °C; settings: both partners purified

Kd [2]: 43 ± 22 µM
Kd [3]: 36 ± 21 µM
B1: Ubp6-UBL (domain or fragment, Saccharomyces cerevisiae, UniProt P43593 2-81, looked up)
chain: SGETFEFNIRHSGKVYPITLSTDATSADLKSKAEELTQVPSARQKYMVKGGLSGEESIKIYPLIKPGSTVMLLGTPDANL
notes: Ubp6, Saccharomyces cerevisiae, UniProt P43593, UBL domain, residues 2-81; Used ^15N-enriched or unlabeled; also called UBL domain of Ubp6; source: E. coli, purified

binding result [4]: binds
B2: Rad23-UBL (residues 1-73) (domain or fragment, Saccharomyces cerevisiae, UniProt P32628 1-73, looked up)
chain: MVSLTFKNFKKEKVPLDLEPSNTILETKTKLAQSISCEESQIKLIYSGKVLQDSKTVSECGLKDGDQVVFMVS
notes: ^15N-enriched; source: E. coli, purified

binding result [5]: binds
binding result [4]: binds
binding result [6]: binds
binding result [7]: binds
B3: Dsk2-UBL (domain or fragment, Saccharomyces cerevisiae)
chain: SLNIHIKSGQDKWEVNVAPESTVLQFKEAINKANGIPVANQRLIYSGKILKDDQTVESYHIQDGHSVHLVKSQPKPLDLQPSLIS
notes: Dsk2, Saccharomyces cerevisiae, UniProt P48510, UBL domain, residues 2-77; also called UBL domain of Dsk2; source: E. coli, purified

binding result [8]: binds
B5: full-length Ubp6 (enzyme, Saccharomyces cerevisiae, UniProt P43593 1-499, looked up)
chain: MSGETFEFNIRHSGKVYPITLSTDATSADLKSKAEELTQVPSARQKYMVKGGLSGEESIKIYPLIKPGSTVMLLGTPDANLISKPAKKNNFIEDLAPEQQVQQFAQLPVGFKNMGNTCYLNATLQALYRVNDLRDMILNYNPSQGVSNSGAQDEEIHKQIVIEMKRCFENLQNKSFKSVLPIVLLNTLRKCYPQFAERDSQGGFYKQQDAEELFTQLFHSMSIVFGDKFSEDFRIQFKTTIKDTANDNDITVKENESDSKLQCHISGTTNFMRNGLLEGLNEKIEKRSDLTGANSIYSVEKKISRLPKFLTVQYVRFFWKRSTNKKSKILRKVVFPFQLDVADMLTPEYAAEKVKVRDELRKVEKEKNEKEREIKRRKFDPSSSENVMTPREQYETQVALNESEKDQWLEEYKKHFPPNLEKGENPSCVYNLIGVITHQGANSESGHYQAFIRDELDENKWYKFNDDKVSVVEKEKIESLAGGGESDSALILMYKGFGL
notes: Ubp6, deubiquitinase with a UBL domain, Saccharomyces cerevisiae, UniProt P43593, full length; source: E. coli, purified

Second part, the molecule before the results:

Molecule: Rpn1 391-642 (from UniProt P38764)
Kd [1]: 40 µM

B4: full-length Dsk2 (natural protein, Saccharomyces cerevisiae, UniProt P48510 1-373, looked up)
chain: MSLNIHIKSGQDKWEVNVAPESTVLQFKEAINKANGIPVANQRLIYSGKILKDDQTVESYHIQDGHSVHLVKSQPKPQTASAAGANNATATGAAAGTGATPNMSSGQSAGFNPLADLTSARYAGYLNMPSADMFGPDGGALNNDSNNQDELLRMMENPIFQSQMNEMLSNPQMLDFMIQSNPQLQAMGPQARQMLQSPMFRQMLTNPDMIRQSMQFARMMDPNAGMGSAGGAASAFPAPGGDAPEEGSNTNTTSSSNTGNNAGTNAGTNAGANTAANPFASLLNPALNPFANAGNAASTGMPAFDPALLASMFQPPVQASQAEDTRPPEERYEHQLRQLNDMGFFDFDRNVAALRRSGGSVQGALDSLLNGDV
notes: Dsk2, UBL-UBA shuttle protein, Saccharomyces cerevisiae, UniProt P48510, full length; ^15N-enriched; source: E. coli, purified
binding result [8]: binds

B6: Rad23-UBL (residues 2-77) (domain or fragment, Saccharomyces cerevisiae, UniProt P32628 2-77, looked up)
chain: VSLTFKNFKKEKVPLDLEPSNTILETKTKLAQSISCEESQIKLIYSGKVLQDSKTVSECGLKDGDQVVFMVSQKKS
notes: Rad23, Saccharomyces cerevisiae, UniProt P32628, UBL domain, residues 2-77; also called UBL domain of Rad23; source: E. coli, purified
binding result [7]: binds
binding result [9]: binds
binding result [8]: binds

B7: full-length Rad23 (natural protein, Saccharomyces cerevisiae, UniProt P32628 1-398, looked up)
chain: MVSLTFKNFKKEKVPLDLEPSNTILETKTKLAQSISCEESQIKLIYSGKVLQDSKTVSECGLKDGDQVVFMVSQKKSTKTKVTEPPIAPESATTPGRENSTEASPSTDASAAPAATAPEGSQPQEEQTATTERTESASTPGFVVGTERNETIERIMEMGYQREEVERALRAAFNNPDRAVEYLLMGIPENLRQPEPQQQTAAAAEQPSTAATTAEQPAEDDLFAQAAQGGNASSGALGTTGGATDAAQGGPPGSIGLTVEDLLSLRQVVSGNPEALAPLLENISARYPQLREHIMANPEVFVSMLLEAVGDNMQDVMEGADDMVEGEDIEVTGEAAAAGLGQGEGEGSFQVDYTPEDDQAISRLCELGFERDLVIQVYFACDKNEEAAANILFSDHAD
notes: Rad23, UBL-UBA shuttle protein, Saccharomyces cerevisiae, UniProt P32628, full length; ^15N-enriched; source: E. coli, purified
binding result [8]: binds

Reference: paper PMC8008175 (The Journal of Biological Chemistry, 2021)
